Measured values taken from article PMC9482650, “Quantitative fragmentomics allow affinity mapping of interactomes” (Nature Communications, 2022).
Positions count from the first letter of the chain named.

T1: APBA2_2, Q99767
T1 sequence (Q99767 654-744, limits assumed, looked up): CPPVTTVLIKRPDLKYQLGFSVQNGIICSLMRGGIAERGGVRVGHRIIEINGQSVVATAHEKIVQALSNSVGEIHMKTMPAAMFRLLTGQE

T2: ARHGAP21, Q5T5U3
T2 sequence (Q5T5U3 45-169, limits assumed, looked up): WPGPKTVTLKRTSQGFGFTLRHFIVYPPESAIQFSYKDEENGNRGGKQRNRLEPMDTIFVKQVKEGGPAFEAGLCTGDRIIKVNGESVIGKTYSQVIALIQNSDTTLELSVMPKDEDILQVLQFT

T3: GRIP1_4, Q9Y3R0
T3 sequence (Q9Y3R0 467-571, limits assumed, looked up): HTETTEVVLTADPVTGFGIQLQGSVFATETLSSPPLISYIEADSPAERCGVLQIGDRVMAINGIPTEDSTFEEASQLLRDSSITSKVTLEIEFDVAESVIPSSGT

T4: HTRA4, P83105
T4 sequence (P83105 378-476, limits assumed, looked up): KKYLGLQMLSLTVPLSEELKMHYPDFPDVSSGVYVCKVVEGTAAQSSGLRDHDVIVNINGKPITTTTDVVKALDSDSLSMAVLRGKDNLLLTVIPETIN

T5: LIN7B, Q9HAP6
T5 sequence (Q9HAP6 88-185, limits assumed, looked up): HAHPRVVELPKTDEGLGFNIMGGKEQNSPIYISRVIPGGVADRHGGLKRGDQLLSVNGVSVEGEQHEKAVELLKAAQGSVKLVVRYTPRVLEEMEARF

T6: LIN7C, Q9NUP9
T6 sequence (Q9NUP9 88-185, limits assumed, looked up): T5 sequence (Q9HAP6 88-185, limits assumed, looked up) with A2S, D13E, V35I, V40I, Q65H, S79K, R89K, A96S

T7: LNX2_3, Q8N448
T7 sequence (Q8N448 463-564, limits assumed, looked up): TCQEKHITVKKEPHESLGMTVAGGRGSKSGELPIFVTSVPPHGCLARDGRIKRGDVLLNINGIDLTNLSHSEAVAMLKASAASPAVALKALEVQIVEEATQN

T8: NHERF3_4, Q5T2W1
T8 sequence (Q5T2W1 373-468, limits assumed, looked up): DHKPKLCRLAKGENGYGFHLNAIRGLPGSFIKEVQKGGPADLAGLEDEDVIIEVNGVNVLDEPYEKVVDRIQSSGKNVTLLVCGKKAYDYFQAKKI

T9: PDZD2_2, O15018
T9 sequence (O15018 329-429, limits assumed, looked up): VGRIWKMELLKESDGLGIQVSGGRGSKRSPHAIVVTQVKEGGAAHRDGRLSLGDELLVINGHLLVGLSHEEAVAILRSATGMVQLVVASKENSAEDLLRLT

T10: PDZRN3_1, Q9UPQ7
T10 sequence (Q9UPQ7 244-349, limits assumed, looked up): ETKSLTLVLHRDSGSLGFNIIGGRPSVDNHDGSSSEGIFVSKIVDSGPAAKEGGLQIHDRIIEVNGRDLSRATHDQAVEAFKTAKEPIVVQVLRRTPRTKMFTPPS

T11: SNTB1, Q13884
T11 sequence (Q13884 107-205, limits assumed, looked up): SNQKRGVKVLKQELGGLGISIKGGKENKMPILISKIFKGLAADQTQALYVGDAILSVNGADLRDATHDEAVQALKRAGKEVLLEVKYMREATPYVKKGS

T12: SNTG2, Q9NY99
T12 sequence (Q9NY99 68-166, limits assumed, looked up): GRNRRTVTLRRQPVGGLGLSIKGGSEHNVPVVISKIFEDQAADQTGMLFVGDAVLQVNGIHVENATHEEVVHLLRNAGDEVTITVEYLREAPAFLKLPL

B1: KIF17, Q9P2E2 (peptide)
chain: SKSNFGSEPL
B2: MYOZ2, Q9NPC6 (peptide)
chain: DTTVPESEDL
B3: RNF146, Q9NTX7 (peptide)
chain: PDGQCTVTEV
B4: MMP24, Q9Y5R2 (peptide)
chain: YYKRPVQEWV

target: T1, APBA2_2, Q99767; experiment: holdup assay; design: key: below the threshold = too weak to quantify, mostly under pKd 3.1 to 4; conditions: plain residues with an end cap or a label only (N-terminal biotin on a linker: ado-ado)

pKd | Binder
below the threshold | B1
below the threshold | B2
below the threshold | B3
below the threshold | B4

target: T2, ARHGAP21, Q5T5U3; experiment: holdup assay; design: key: below the threshold = too weak to quantify, mostly under pKd 3.1 to 4; conditions: plain residues with an end cap or a label only (N-terminal biotin on a linker: ado-ado)

pKd | Binder
3.56 | B1
below the threshold | B2
below the threshold | B3
below the threshold | B4

target: DLG1_2, Q12959; experiment: holdup assay; design: key: below the threshold = too weak to quantify, mostly under pKd 3.1 to 4; conditions: plain residues with an end cap or a label only (N-terminal biotin on a linker: ado-ado)
Sequence (Q12959 314-412): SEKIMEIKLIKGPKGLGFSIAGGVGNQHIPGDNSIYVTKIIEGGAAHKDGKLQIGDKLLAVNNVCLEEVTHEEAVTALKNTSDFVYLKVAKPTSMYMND

pKd | Binder
below the threshold | B1
below the threshold | B2
5.3 | B3
3.99 | B4

target: DLG1_3, Q12959; experiment: holdup assay; design: key: below the threshold = too weak to quantify, mostly under pKd 3.1 to 4; conditions: plain residues with an end cap or a label only (N-terminal biotin on a linker: ado-ado)
Sequence (Q12959 457-571): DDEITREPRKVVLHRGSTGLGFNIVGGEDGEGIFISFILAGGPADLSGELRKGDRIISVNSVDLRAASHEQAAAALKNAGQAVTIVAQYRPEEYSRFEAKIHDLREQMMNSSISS

pKd | Binder
below the threshold | B1
below the threshold | B2
below the threshold | B3
below the threshold | B4

target: DLG4_3, P78352; experiment: holdup assay; design: key: below the threshold = too weak to quantify, mostly under pKd 3.1 to 4; conditions: plain residues with an end cap or a label only (N-terminal biotin on a linker: ado-ado)
Sequence (P78352 306-403): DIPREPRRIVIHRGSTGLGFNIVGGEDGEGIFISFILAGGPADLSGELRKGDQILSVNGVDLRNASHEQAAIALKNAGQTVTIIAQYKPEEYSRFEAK

pKd | Binder
below the threshold | B1
below the threshold | B2
3.5 | B3
below the threshold | B4

target: FRMPD2_1, Q68DX3; experiment: holdup assay; design: key: below the threshold = too weak to quantify, mostly under pKd 3.1 to 4; conditions: plain residues with an end cap or a label only (N-terminal biotin on a linker: ado-ado)
Sequence (Q68DX3 770-861): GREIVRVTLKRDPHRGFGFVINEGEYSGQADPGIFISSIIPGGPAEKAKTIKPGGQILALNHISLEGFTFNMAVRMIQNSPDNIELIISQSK

pKd | Binder
below the threshold | B1
below the threshold | B2
below the threshold | B3
3.85 | B4

target: T3, GRIP1_4, Q9Y3R0; experiment: holdup assay; design: key: below the threshold = too weak to quantify, mostly under pKd 3.1 to 4; conditions: plain residues with an end cap or a label only (N-terminal biotin on a linker: ado-ado)

pKd | Binder
below the threshold | B1
below the threshold | B2
below the threshold | B3
below the threshold | B4

target: T4, HTRA4, P83105; experiment: holdup assay; design: key: below the threshold = too weak to quantify, mostly under pKd 3.1 to 4; conditions: plain residues with an end cap or a label only (N-terminal biotin on a linker: ado-ado)

pKd | Binder
below the threshold | B1
3.8 | B2
4.36 | B3
4.37 | B4

target: IL16_4, Q14005; experiment: holdup assay; design: key: below the threshold = too weak to quantify, mostly under pKd 3.1 to 4; conditions: plain residues with an end cap or a label only (N-terminal biotin on a linker: ado-ado)
Sequence (Q14005 1229-1329): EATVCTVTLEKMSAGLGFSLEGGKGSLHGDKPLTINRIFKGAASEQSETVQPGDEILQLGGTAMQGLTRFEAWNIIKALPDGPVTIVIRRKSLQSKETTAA

pKd | Binder
below the threshold | B1
below the threshold | B2
below the threshold | B3
3.57 | B4

target: Inadl_3, Q8NI35; experiment: holdup assay; design: key: below the threshold = too weak to quantify, mostly under pKd 3.1 to 4; conditions: plain residues with an end cap or a label only (N-terminal biotin on a linker: ado-ado)
Sequence (Q8NI35 359-469): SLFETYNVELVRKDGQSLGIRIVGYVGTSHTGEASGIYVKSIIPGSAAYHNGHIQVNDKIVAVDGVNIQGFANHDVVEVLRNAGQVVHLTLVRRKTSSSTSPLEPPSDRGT

pKd | Binder
below the threshold | B1
below the threshold | B2
4.11 | B3
below the threshold | B4

target: Inadl_6, Q8NI35; experiment: holdup assay; design: key: below the threshold = too weak to quantify, mostly under pKd 3.1 to 4; conditions: plain residues with an end cap or a label only (N-terminal biotin on a linker: ado-ado)
Sequence (Q8NI35 1058-1167): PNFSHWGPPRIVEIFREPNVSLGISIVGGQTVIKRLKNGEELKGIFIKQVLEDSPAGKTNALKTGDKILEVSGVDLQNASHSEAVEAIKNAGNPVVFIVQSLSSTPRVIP

pKd | Binder
below the threshold | B1
below the threshold | B2
3.95 | B3
3.7 | B4

target: LAP2, Q96RT1; experiment: holdup assay; design: key: below the threshold = too weak to quantify, mostly under pKd 3.1 to 4; conditions: plain residues with an end cap or a label only (N-terminal biotin on a linker: ado-ado)
Sequence (Q96RT1 other isoform, or with tags, fused parts or gaps): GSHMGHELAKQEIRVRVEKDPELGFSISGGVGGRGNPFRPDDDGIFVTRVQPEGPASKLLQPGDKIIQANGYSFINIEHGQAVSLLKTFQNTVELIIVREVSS

pKd | Binder
below the threshold | B1
below the threshold | B2
4.22 | B3
4.51 | B4

target: T5, LIN7B, Q9HAP6; experiment: holdup assay; design: key: below the threshold = too weak to quantify, mostly under pKd 3.1 to 4; conditions: plain residues with an end cap or a label only (N-terminal biotin on a linker: ado-ado)

pKd | Binder
below the threshold | B1
below the threshold | B2
below the threshold | B3
below the threshold | B4

target: T6, LIN7C, Q9NUP9; experiment: holdup assay; design: key: below the threshold = too weak to quantify, mostly under pKd 3.1 to 4; conditions: plain residues with an end cap or a label only (N-terminal biotin on a linker: ado-ado)

pKd | Binder
4.09 | B1
below the threshold | B2
below the threshold | B3
below the threshold | B4

target: LNX1_2, Q8TBB1; experiment: holdup assay; design: key: below the threshold = too weak to quantify, mostly under pKd 3.1 to 4; conditions: plain residues with an end cap or a label only (N-terminal biotin on a linker: ado-ado)
Sequence (Q8TBB1 371-470): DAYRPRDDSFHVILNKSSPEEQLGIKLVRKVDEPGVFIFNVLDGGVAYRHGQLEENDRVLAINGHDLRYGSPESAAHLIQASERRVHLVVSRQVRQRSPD

pKd | Binder
below the threshold | B1
below the threshold | B2
3.99 | B3
3.71 | B4

target: LNX1_3, Q8TBB1; experiment: holdup assay; design: key: below the threshold = too weak to quantify, mostly under pKd 3.1 to 4; conditions: plain residues with an end cap or a label only (N-terminal biotin on a linker: ado-ado)
Sequence (Q8TBB1 500-596): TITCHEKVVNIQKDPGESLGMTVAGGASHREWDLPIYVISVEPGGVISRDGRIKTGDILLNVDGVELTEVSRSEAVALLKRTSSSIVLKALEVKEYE

pKd | Binder
below the threshold | B1
below the threshold | B2
below the threshold | B3
below the threshold | B4

target: T7, LNX2_3, Q8N448; experiment: holdup assay; design: key: below the threshold = too weak to quantify, mostly under pKd 3.1 to 4; conditions: plain residues with an end cap or a label only (N-terminal biotin on a linker: ado-ado)

pKd | Binder
below the threshold | B1
below the threshold | B2
below the threshold | B3
below the threshold | B4

target: MAGI2_4, Q86UL8; experiment: holdup assay; design: key: below the threshold = too weak to quantify, mostly under pKd 3.1 to 4; conditions: plain residues with an end cap or a label only (N-terminal biotin on a linker: ado-ado)
Sequence (Q86UL8 772-865): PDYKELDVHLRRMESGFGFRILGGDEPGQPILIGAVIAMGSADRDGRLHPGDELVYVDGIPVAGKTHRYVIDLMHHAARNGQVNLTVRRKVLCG

pKd | Binder
below the threshold | B1
below the threshold | B2
4.38 | B3
4.09 | B4

target: T8, NHERF3_4, Q5T2W1; experiment: holdup assay; design: key: below the threshold = too weak to quantify, mostly under pKd 3.1 to 4; conditions: plain residues with an end cap or a label only (N-terminal biotin on a linker: ado-ado)

pKd | Binder
below the threshold | B1
below the threshold | B2
below the threshold | B3
below the threshold | B4

target: T9, PDZD2_2, O15018; experiment: holdup assay; design: key: below the threshold = too weak to quantify, mostly under pKd 3.1 to 4; conditions: plain residues with an end cap or a label only (N-terminal biotin on a linker: ado-ado)

pKd | Binder
below the threshold | B1
below the threshold | B2
4.79 | B3
5.65 | B4

target: T10, PDZRN3_1, Q9UPQ7; experiment: holdup assay; design: key: below the threshold = too weak to quantify, mostly under pKd 3.1 to 4; conditions: plain residues with an end cap or a label only (N-terminal biotin on a linker: ado-ado)

pKd | Binder
below the threshold | B1
below the threshold | B2
3.5 | B3
below the threshold | B4

target: SCRIB_2, Q14160; experiment: holdup assay; design: key: below the threshold = too weak to quantify, mostly under pKd 3.1 to 4; conditions: plain residues with an end cap or a label only (N-terminal biotin on a linker: ado-ado)
Sequence (Q14160 857-960): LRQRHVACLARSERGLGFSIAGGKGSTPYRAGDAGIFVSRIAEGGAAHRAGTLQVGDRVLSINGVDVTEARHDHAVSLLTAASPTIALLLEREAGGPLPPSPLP

pKd | Binder
below the threshold | B1
below the threshold | B2
4.28 | B3
below the threshold | B4

target: T11, SNTB1, Q13884; experiment: holdup assay; design: key: below the threshold = too weak to quantify, mostly under pKd 3.1 to 4; conditions: plain residues with an end cap or a label only (N-terminal biotin on a linker: ado-ado)

pKd | Binder
below the threshold | B1
below the threshold | B2
4.37 | B3
below the threshold | B4

target: T12, SNTG2, Q9NY99; experiment: holdup assay; design: key: below the threshold = too weak to quantify, mostly under pKd 3.1 to 4; conditions: plain residues with an end cap or a label only (N-terminal biotin on a linker: ado-ado)

pKd | Binder
below the threshold | B1
below the threshold | B2
3.98 | B3
below the threshold | B4

target: TJP1_3, Q07157; experiment: holdup assay; design: key: below the threshold = too weak to quantify, mostly under pKd 3.1 to 4; conditions: plain residues with an end cap or a label only (N-terminal biotin on a linker: ado-ado)
Sequence (Q07157 416-512): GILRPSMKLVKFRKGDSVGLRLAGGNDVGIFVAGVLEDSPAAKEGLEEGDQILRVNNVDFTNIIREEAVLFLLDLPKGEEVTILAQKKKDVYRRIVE

pKd | Binder
below the threshold | B1
below the threshold | B2
below the threshold | B3
4.34 | B4
